The source of these data is PMC4861259, “An Interplay of S-Nitrosylation and Metal Ion Binding for Astrocytic S100B Protein” (PLoS ONE, 2016).

The series concerns the molecule itself. Briefly: SEC; Superdex 75 10/300 GL; 200 μl of 100 μM protein loaded, before and after every ITC run, in the ITC buffers (10 mM TES pH 7.2 with 15 mM or 150 mM NaCl, with or without CaCl2). Background: SEC sorts molecules by how far they enter the pores of the column.

The term stoichiometry N denotes a count of units in the complex or per binding partner.

B1: recombinant human S100B protein, unmodified (S100BSH) (natural protein, UniProt P04271 1-92, looked up)
chain: MSELEKAMVALIDVFHQYSGREGDKHKLKKSELKELINNELSHFLEEIKEQEVVDKVMETLDNDGDGECDFQEFMAFVAMVTTACHEFFEHE
notes: S100B protein, human, recombinant; Non-covalent homodimer; source: E. coli bacterial culture, purified (semi-preparative HPLC, C18)
For B1, the “stoichiometry N” value was determined as 2.

B2: recombinant human S100B protein, S-nitrosylated at Cys84 (S100BSNO) (natural protein, UniProt P04271 1-92, looked up)
chain: MSELEKAMVALIDVFHQYSGREGDKHKLKKSELKELINNELSHFLEEIKEQEVVDKVMETLDNDGDGECDFQEFMAFVAMVTTACHEFFEHE
modifications: S-nitrosylated cysteine (SNO) at Cys84
notes: S100B protein, human, recombinant, chemically S-nitrosylated at Cys84; Non-covalent homodimer; also called S100BNO; S-nitrosylated S100B; source: E. coli, chemically S-nitrosylated, purified (semi-preparative HPLC, C18)
B2: the “stoichiometry N” value is 2.
